# Reference: patent publication US20200087373A1 (UNIVERSITY OF COPENHAGEN, published 2020)
# Numbered stars: 1 amine (or outer) side, 2 acyl side, 3 side chain; on linkers, the order of the positions; unused ones are H or OH. Side chains are listed from the residue outwards. Ends that are not written are not given here. * marks the point of attachment. C16 diacid = O=C(O)CCCCCCCCCCCCCCC(=O)*; γGlu = O=C(O)[C@H](CCC(=O)[*:2])N[*:1]; Stearoyl = CCCCCCCCCCCCCCCCCC(=O)*; Palmitoyl = CCCCCCCCCCCCCCCC(=O)*; Myristoyl = CCCCCCCCCCCCCC(=O)*; Lauroyl = CCCCCCCCCCCC(=O)*; GABA = NCCCC(=O)O
# T1: human GIP receptor (human, UniProt P48546 22-466)
# T1 sequence (looked up): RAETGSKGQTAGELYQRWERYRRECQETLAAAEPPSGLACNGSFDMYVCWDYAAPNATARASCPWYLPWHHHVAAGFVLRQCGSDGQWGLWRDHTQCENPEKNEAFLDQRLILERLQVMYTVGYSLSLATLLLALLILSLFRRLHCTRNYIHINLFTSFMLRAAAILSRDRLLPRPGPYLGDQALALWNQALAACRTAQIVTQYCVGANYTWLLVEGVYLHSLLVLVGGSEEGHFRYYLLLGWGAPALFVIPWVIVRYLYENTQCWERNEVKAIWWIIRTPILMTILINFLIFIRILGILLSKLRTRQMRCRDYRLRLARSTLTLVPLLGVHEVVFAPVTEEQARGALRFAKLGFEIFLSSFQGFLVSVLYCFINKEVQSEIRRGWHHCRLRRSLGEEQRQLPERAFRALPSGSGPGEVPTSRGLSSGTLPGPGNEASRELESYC
# B1: AT131 [hGIP(3-30)NH2[D15E; H18A]-C16/16] (peptide)
# peptide: EGTFISDYSIAMEK(Palmitoyl)IAQQDFVNWLLAQK-NH2
# modifications: N-terminus assumed
# SMILES: CCCCCCCCCCCCCCCC(=O)NCCCC[C@H](NC(=O)[C@H](CCC(=O)O)NC(=O)[C@H](CCSC)NC(=O)[C@H](C)NC(=O)[C@@H](NC(=O)[C@H](CO)NC(=O)[C@H](Cc1ccc(O)cc1)NC(=O)[C@H](CC(=O)O)NC(=O)[C@H](CO)NC(=O)[C@@H](NC(=O)[C@H](Cc1ccccc1)NC(=O)[C@@H](NC(=O)CNC(=O)[C@@H](N)CCC(=O)O)[C@@H](C)O)[C@@H](C)CC)[C@@H](C)CC)C(=O)N[C@H](C(=O)N[C@@H](C)C(=O)N[C@@H](CCC(N)=O)C(=O)N[C@@H](CCC(N)=O)C(=O)N[C@@H](CC(=O)O)C(=O)N[C@@H](Cc1ccccc1)C(=O)N[C@H](C(=O)N[C@@H](CC(N)=O)C(=O)N[C@@H](Cc1c[nH]c2ccccc12)C(=O)N[C@@H](CC(C)C)C(=O)N[C@@H](CC(C)C)C(=O)N[C@@H](C)C(=O)N[C@@H](CCC(N)=O)C(=O)N[C@@H](CCCCN)C(N)=O)C(C)C)[C@@H](C)CC
# B2: AT107 [hGIP(3-30)NH2[T5W; D15E; H18A]-C16/16] (peptide)
# peptide: EGWFISDYSIAMEK(Palmitoyl)IAQQDFVNWLLAQK-NH2
# modifications: N-terminus assumed
# SMILES: CCCCCCCCCCCCCCCC(=O)NCCCC[C@H](NC(=O)[C@H](CCC(=O)O)NC(=O)[C@H](CCSC)NC(=O)[C@H](C)NC(=O)[C@@H](NC(=O)[C@H](CO)NC(=O)[C@H](Cc1ccc(O)cc1)NC(=O)[C@H](CC(=O)O)NC(=O)[C@H](CO)NC(=O)[C@@H](NC(=O)[C@H](Cc1ccccc1)NC(=O)[C@H](Cc1c[nH]c2ccccc12)NC(=O)CNC(=O)[C@@H](N)CCC(=O)O)[C@@H](C)CC)[C@@H](C)CC)C(=O)N[C@H](C(=O)N[C@@H](C)C(=O)N[C@@H](CCC(N)=O)C(=O)N[C@@H](CCC(N)=O)C(=O)N[C@@H](CC(=O)O)C(=O)N[C@@H](Cc1ccccc1)C(=O)N[C@H](C(=O)N[C@@H](CC(N)=O)C(=O)N[C@@H](Cc1c[nH]c2ccccc12)C(=O)N[C@@H](CC(C)C)C(=O)N[C@@H](CC(C)C)C(=O)N[C@@H](C)C(=O)N[C@@H](CCC(N)=O)C(=O)N[C@@H](CCCCN)C(N)=O)C(C)C)[C@@H](C)CC
# B3: AT109 (E3pGlu, C16 at position 16) (peptide)
# peptide: EGTFISDYSIAMDKIHQQDFVNWLLAQK
# modifications: pyroglutamic acid (pGlu) in place of Glu at position 3 in GIP numbering (residue 1 of the entry); C16 (palmitoyl) fatty acid on Lys at position 16 (residue 14 of the entry); C-terminal amide taken from the series hGIP(3-30)NH2
# B4: AT140 [hGIP(5-30)NH2-C16diacid/16] (peptide)
# peptide: TFISDYSIAMDK(C16 diacid)IHQQDFVNWLLAQK-NH2
# modifications: N-terminus assumed
# SMILES: CC[C@H](C)[C@H](NC(=O)[C@H](CO)NC(=O)[C@H](Cc1ccc(O)cc1)NC(=O)[C@H](CC(=O)O)NC(=O)[C@H](CO)NC(=O)[C@@H](NC(=O)[C@H](Cc1ccccc1)NC(=O)[C@@H](N)[C@@H](C)O)[C@@H](C)CC)C(=O)N[C@@H](C)C(=O)N[C@@H](CCSC)C(=O)N[C@@H](CC(=O)O)C(=O)N[C@@H](CCCCNC(=O)CCCCCCCCCCCCCCC(=O)O)C(=O)N[C@H](C(=O)N[C@@H](Cc1c[nH]cn1)C(=O)N[C@@H](CCC(N)=O)C(=O)N[C@@H](CCC(N)=O)C(=O)N[C@@H](CC(=O)O)C(=O)N[C@@H](Cc1ccccc1)C(=O)N[C@H](C(=O)N[C@@H](CC(N)=O)C(=O)N[C@@H](Cc1c[nH]c2ccccc12)C(=O)N[C@@H](CC(C)C)C(=O)N[C@@H](CC(C)C)C(=O)N[C@@H](C)C(=O)N[C@@H](CCC(N)=O)C(=O)N[C@@H](CCCCN)C(N)=O)C(C)C)[C@@H](C)CC
# notes: also called AT140 [hGIP(5-30)-C16-diacid/16]
# B5: AT164 [hGIP(3-30)NH2[H18K]-C16/18+y-glutamic acid] (peptide)
# peptide: EGTFISDYSIAMDKIK([γGlu-Palmitoyl])QQDFVNWLLAQK-NH2
# modifications: N-terminus assumed
# SMILES: CCCCCCCCCCCCCCCC(=O)N[C@@H](CCC(=O)NCCCC[C@H](NC(=O)[C@@H](NC(=O)[C@H](CCCCN)NC(=O)[C@H](CC(=O)O)NC(=O)[C@H](CCSC)NC(=O)[C@H](C)NC(=O)[C@@H](NC(=O)[C@H](CO)NC(=O)[C@H](Cc1ccc(O)cc1)NC(=O)[C@H](CC(=O)O)NC(=O)[C@H](CO)NC(=O)[C@@H](NC(=O)[C@H](Cc1ccccc1)NC(=O)[C@@H](NC(=O)CNC(=O)[C@@H](N)CCC(=O)O)[C@@H](C)O)[C@@H](C)CC)[C@@H](C)CC)[C@@H](C)CC)C(=O)N[C@@H](CCC(N)=O)C(=O)N[C@@H](CCC(N)=O)C(=O)N[C@@H](CC(=O)O)C(=O)N[C@@H](Cc1ccccc1)C(=O)N[C@H](C(=O)N[C@@H](CC(N)=O)C(=O)N[C@@H](Cc1c[nH]c2ccccc12)C(=O)N[C@@H](CC(C)C)C(=O)N[C@@H](CC(C)C)C(=O)N[C@@H](C)C(=O)N[C@@H](CCC(N)=O)C(=O)N[C@@H](CCCCN)C(N)=O)C(C)C)C(=O)O
# B6: AT165 [hGIP(3-30)NH2[H18K]-C16/18+y-aminobuturic acid] (peptide)
# peptide: EGTFISDYSIAMDKIK([GABA-Palmitoyl])QQDFVNWLLAQK-NH2
# modifications: N-terminus assumed
# SMILES: CCCCCCCCCCCCCCCC(=O)NCCCC(=O)NCCCC[C@H](NC(=O)[C@@H](NC(=O)[C@H](CCCCN)NC(=O)[C@H](CC(=O)O)NC(=O)[C@H](CCSC)NC(=O)[C@H](C)NC(=O)[C@@H](NC(=O)[C@H](CO)NC(=O)[C@H](Cc1ccc(O)cc1)NC(=O)[C@H](CC(=O)O)NC(=O)[C@H](CO)NC(=O)[C@@H](NC(=O)[C@H](Cc1ccccc1)NC(=O)[C@@H](NC(=O)CNC(=O)[C@@H](N)CCC(=O)O)[C@@H](C)O)[C@@H](C)CC)[C@@H](C)CC)[C@@H](C)CC)C(=O)N[C@@H](CCC(N)=O)C(=O)N[C@@H](CCC(N)=O)C(=O)N[C@@H](CC(=O)O)C(=O)N[C@@H](Cc1ccccc1)C(=O)N[C@H](C(=O)N[C@@H](CC(N)=O)C(=O)N[C@@H](Cc1c[nH]c2ccccc12)C(=O)N[C@@H](CC(C)C)C(=O)N[C@@H](CC(C)C)C(=O)N[C@@H](C)C(=O)N[C@@H](CCC(N)=O)C(=O)N[C@@H](CCCCN)C(N)=O)C(C)C
# Biological target: T1, human GIP receptor
# Assay: cell-based or functional assay
Binder,cAMP - antagonisme IC50 [nM],cAMP - antagonisme fold (paired) [fold]
B1,65,1.1
B2,76.9,3.1
B3,,8
EGTFISDYSIAMDK(Palmitoyl)IHQQDFVNWLLAQK-NH2 [AT105 [hGIP(3-30)NH2-C16/16]],23.8,3.4

# Biological target: T1, human GIP receptor
# Assay: ratio of Ki with 2% HSA to Ki without HSA, 125I-hGIP competition binding on hGIPR COS-7 cells;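 note: nonspecific binding was defined as radioligand signal on cells lacking the receptor transfection, with cell lysates measured after washes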
# Experimental: (§1) After incubation, the cells were washed twice in ice-cold binding buffer (+/−2% HSA) and lysed using 200 mM NaOH with 1% SDS for 30 min. Nonspecific binding was determined as the binding of radioactive ligand to untransfected cells.
row,Binder,Fold (Ki + HSA / Ki - HSA) [fold]
1,B4,1.5

# Biological target: T1, human GIP receptor
# Assay: 125I-hGIP(1-42) competition binding, COS-7 cells expressing human GIPR
# Experimental: as §1
row,Binder,IC50 [nM]
1,Lauroyl-EGTFISDYSIAMDKIHQQDFVNWLLAQK-NH2 [AT101 [hGIP(3-30)NH2-C12/3]],9.9
2,B1,6510
3,B2,5220
4,Palmitoyl-EGTFISDYSIAMDKIHQQDFVNWLLAQK-NH2 [AT104 [hGIP(3-30)NH2-C16/3]],75
5,Stearoyl-EGTFISDYSIAMDKIHQQDFVNWLLAQK-NH2 [AT113 [hGIP(3-30)NH2-C18/3]],41400
6,EGTFISDYSIAMDK(Lauroyl)IHQQDFVNWLLAQK-NH2 [AT102 [hGIP(3-30)NH2-C12/16]],59.1
7,Myristoyl-EGTFISDYSIAMDKIHQQDFVNWLLAQK-NH2 [AT110 [hGIP(3-30)NH2-C14/3]],55
8,B3,1580
9,EGTFISDYSIAMDK(Palmitoyl)IHQQDFVNWLLAQK-NH2 [AT105 [hGIP(3-30)NH2-C16/16]],522

# Biological target: T1, human GIP receptor
# Assay: 125I-hGIP(1-42) competition binding, COS-7 cells expressing human GIPR, with 2% HSA;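 note: nonspecific signal taken as radioligand bound to untransfected cells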
# Experimental: as §1
row,Binder,Ki [nM]
1,B4,3280

# Biological target: T1, human GIP receptor
# Assay: cell-based or functional assay
# Remark: another data set of the same source
Binder,cAMP accumulation Fold (fold change from GIP(5-30)NH2) [fold],cAMP accumulation IC50 [nM],cAMP accumulation logIC50
B4,7.4,204,-6.69 log(M)

# Biological target: T1, human GIP receptor
# Assay: 125I-hGIP(1-42) competition binding, COS-7 cells expressing human GIPR, without HSA;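 note: nonspecific binding defined as radioligand bound to cells lacking the transfected receptor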
# Experimental: as §1
row,Binder,Ki [nM]
1,B4,2160

# Biological target: T1, human GIP receptor
# Assay: 125I-hGIP competition binding on hGIPR COS-7 cells; fold in affinity, paired, reference taken as GIP(3-30)NH2
# Experimental: as §1
row,Binder,fold (paired) [fold]
1,Lauroyl-EGTFISDYSIAMDKIHQQDFVNWLLAQK-NH2 [AT101 [hGIP(3-30)NH2-C12/3]],0.7
2,B1,49
3,B2,186
4,Palmitoyl-EGTFISDYSIAMDKIHQQDFVNWLLAQK-NH2 [AT104 [hGIP(3-30)NH2-C16/3]],4.9
5,Stearoyl-EGTFISDYSIAMDKIHQQDFVNWLLAQK-NH2 [AT113 [hGIP(3-30)NH2-C18/3]],16400
6,EGTFISDYSIAMDK(Lauroyl)IHQQDFVNWLLAQK-NH2 [AT102 [hGIP(3-30)NH2-C12/16]],6.1
7,Myristoyl-EGTFISDYSIAMDKIHQQDFVNWLLAQK-NH2 [AT110 [hGIP(3-30)NH2-C14/3]],5.2
8,B3,74
9,EGTFISDYSIAMDK(Palmitoyl)IHQQDFVNWLLAQK-NH2 [AT105 [hGIP(3-30)NH2-C16/16]],34

# Biological target: T1, human GIP receptor
# Assay: cell-based or functional assay
# Remark: another data set of the same source
Binder,cAMP accumulation Fold change (from GIP(3-30)NH2) [fold],cAMP accumulation IC50 [nM],cAMP accumulation logIC50
B5,6.3,10.2,-7.99 log(M)
EGTFISDYSIAMDKIHQQDFVNWLLAQK-NH2 [hGIP(3-30)NH2],,64.6,-7.19 log(M)
B6,2.9,22.4,-7.65 log(M)
